According to patent publication US20060246471A1 (published 2006):
Blank lines part the entries; values can stand above or below the binder they belong to.

T1: ML-IAP-BIR (amino acids 63-179 of accession number BIR7_HUMAN), bacterially expressed from pET15b (human, UniProt Q96CA5 63-179)
T1 construct: range 63-179; Purified protein used in the fluorescence polarization assays; also called MLBIR; wild-type ML-IAP-BIR; not shown: N-terminal His6-tag from the pET15b vector
T1 sequence (looked up): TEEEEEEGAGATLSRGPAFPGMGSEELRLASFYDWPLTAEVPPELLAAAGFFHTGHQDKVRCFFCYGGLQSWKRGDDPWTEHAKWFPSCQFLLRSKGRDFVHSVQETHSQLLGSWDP

T2: MLBIR-Q (C-terminally truncated version of ML-IAP-BIR with the same number of amino acids as MLXBIR3 and … (human, UniProt Q96CA5 63-172))
T2 construct: range 63-172; also called C-terminal truncated wild type; not shown: N-terminal His6-tag from the pET15b vector
T2 sequence (looked up): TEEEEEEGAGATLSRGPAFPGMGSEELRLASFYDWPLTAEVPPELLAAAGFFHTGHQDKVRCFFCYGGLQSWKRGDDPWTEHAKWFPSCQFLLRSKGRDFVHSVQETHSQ

B1: wild-type mature Smac protein (amino acids 56-239 of Smac/DIABLO, C-terminal His6 fusion) (other, human, UniProt Q9NR28 56-239, looked up)
chain: AVPIAQKSEPHSLSSEALMRRAVSLVTDSTSTFLSQTTYALIEAITEYTKAVYTLTSLYRQYTSLLGKMNSEEEDEVWQVIIGARAEMTSKHQEYLKLETTWMTAVGLSEMAAEAAYQTGADQASITARNHIQLVKLQVEEVHQLSRKAETKLAEAQIEELRQKTQEEGEERAESEQEAYLRED
notes: range 56-239; not shown: C-terminal His6 fusion from pet21b+
B2: full-length ML-IAP plus a N-terminal His6-tag (protein, human, UniProt Q96CA5 1-298, looked up, not shown: small tags and cut ends)
chain: MGPKDSAKCLHRGPQPSHWAAGDGPTQERCGPRSLGSPVLGLDTCRAWDHVDGQILGQLRPLTEEEEEEGAGATLSRGPAFPGMGSEELRLASFYDWPLTAEVPPELLAAAGFFHTGHQDKVRCFFCYGGLQSWKRGDDPWTEHAKWFPSCQFLLRSKGRDFVHSVQETHSQLLGSWDPWEEPEDAAPVAPSVPASGYPELPTPRREVQSESAQEPGGVSPAEAQRAWWVLEPPGARDVEAQLRRLQEERTCKVCLDRAVSIVFVPCGHLVCAECAPGLQLCPICRAPVRSRVRTFLS
B3: MLXBIR3SG (ML-IAP chimera: ML-IAP framework with XIAP-BIR3 residues 336-348 in place of 160-179, and S150G) (other)
chain: MGSSHHHHHHSSGLVPRGSHMLETEEEEEEGAGATLSRGPAFPGMGSEELRLASFYDWPLTAEVPPELLAAAGFFHTGHQDKVRCFFCYGGLQSWKRGDDPWTEHAKWFPGCQFLLRSKGQEYINNIHLTHSL
notes: also called ML-IAP-BIR/XIAP-BIR3 chimera protein; His6-tagged MLXBIR3SG

Assays:
[1] = target: T3, XIAP-BIR3 (third BIR of XIAP, residues 252-348) (human, UniProt P98170 252-348); assay: fluorescence polarization competition against Hid-FAM probe
T3 construct: range 252-348; No tags are stated; also called XIAP-BIR3 protein
Experimental: (§1) Samples were read after a 10-minute incubation. Fluorescence polarization values were plotted as a function of the antagonist concentration, and the IC₅₀ values were obtained by fitting the data to a 4-parameter equation using Kaleidagraph™ software (Synergy software, Reading, Pa.). Inhibition constants (Kᵢ) for the antagonists were determined from the IC₅₀ values (Keating et al., (2000) Putting the pieces together: contribution of fluorescence polarization assays to small-molecule lead optimization. Proceedings of SPIE: In-Vitro Diagnostic Instrumentation.).

[2] = target: T1, ML-IAP-BIR (amino acids 63-179 of …); assay: as above
Experimental: as §1

[3] = target: B3; assay: as above
Experimental: as §1

[4] = target: T2, MLBIR-Q (C-terminally truncated version …); assay: as above
Experimental: as §1

[5] = target: B3; assay: TR-FRET competition against biotinylated Smac peptide AVPIAQK-biotin on His6-tagged MLXBIR3SG
Experimental: Time-Resolved Fluorescence Resonance Energy Transfer (TR-FRET) competition experiments (Kolb et al., (1996) J. Biomol. Screening 1 (4): 203-210) were performed on the Wallac Victor2 Multilabeled Counter Reader™ (Perkin Elmer Life and Analytical Sciences, Inc.). […] Alternatively, this cocktail can be made using optimized concentrations of europium-labeled anti-His₆ antibody (Perkin Elmer) instead of the anti-His₆ antibody-allophycocyanin conjugate, and streptavidin-allophycocyanin conjugate (Perkin Elmer) instead of europium-labeled streptavidin. The reagent cocktail was incubated at room temperature for 30 minutes. […] After a 90 minute incubation at room temperature, the fluorescence was read with filters for the excitation of europium (340 nm) and for the emission wavelengths of europium (615 nm) and allophycocyanin (665 nm). Data are calculated as a ratio of the emission signal of allophycocyanin at 665 nm to the emission signal of europium at 615 nm (these ratios are multiplied by a factor of 10,000 for ease of data manipulation). The resulting values were plotted as a function of antagonist concentration and fit to a 4-parameter equation using Kaleidagraph™ software (Synergy Software, Reading, Pa.). Indications of antagonist potency were determined from the IC₅₀ values.

[6] = target: ΔCARD human caspase 9 (lacking the first 138 residues) with Ala substitutions at residues 304 to 306 (human) (UniProt P55211); assay: caspase-9 enzyme inhibition
[7] = target: T4, 5-carboxyflourescein-conjugated AVPFAK(5-FAM)K (Hid-FAM) (5-carboxyfluorescein (5-FAM) on Lys 6); assay: fluorescence polarization, BIR protein titrated onto 5 nM Hid-FAM
T4 construct: also called HID-FAM probe; Hid-based 5-carboxyfluorescein-labeled peptide
Experimental: Polarization experiments were performed on an Analyst™ HT 96-384 (Molecular Devices Corp.). […] The reactions were read after an incubation time of 10 minutes at room temperature with standard cut-off filters for the fluorescein fluorophore (λₑₓ=485 nm; λₑₘ=530 nm) in 96-well black HE96 plates (Molecular Devices Corp.). Fluorescence polarization values were plotted as a function of the protein concentration, and the EC₅₀ values were obtained by fitting the data to a 4-parameter equation using Kaleidagraph™ software (Synergy software, Reading, Pa.). The apparent Kd values were determined from the EC₅₀ values.

[8] = target: ΔCARD human caspase 9 (lacking the first 138 residues) with Ala substitutions at residues 304 to 306 (human) (UniProt P55211); assay: caspase-9 enzyme inhibition (Ac-LEHD-AFC hydrolysis), Ki(app); too low to measure accurately

Sequence of ΔCARD human caspase 9 (lacking the first 138 residues) with Ala substitutions at residues 304 to 306 (human) (P55211 139-416, stated change not applied): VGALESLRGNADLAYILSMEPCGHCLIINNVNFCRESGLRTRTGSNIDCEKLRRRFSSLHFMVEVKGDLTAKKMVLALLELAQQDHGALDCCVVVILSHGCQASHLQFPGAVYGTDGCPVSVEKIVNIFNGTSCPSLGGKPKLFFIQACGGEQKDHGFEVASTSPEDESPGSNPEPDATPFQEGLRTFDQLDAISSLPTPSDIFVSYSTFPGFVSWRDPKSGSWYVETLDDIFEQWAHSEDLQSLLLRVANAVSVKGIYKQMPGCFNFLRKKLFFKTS
T3 sequence (P98170 252-348 limits assumed): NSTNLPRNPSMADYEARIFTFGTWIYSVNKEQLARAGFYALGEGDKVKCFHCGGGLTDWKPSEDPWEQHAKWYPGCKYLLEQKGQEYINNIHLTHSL

Binder: B1
Ki [1]: 320 nM
Ki [2]: 26 nM
Ki [3]: 59 nM
Ki [4]: 54 nM

IC50 [5]: 150 nM
Binder: AVPW (also called AVPW (Hid)) [AVPW peptide]

Binder: B2
fold lower potency for inhibition of caspase-9 activity relative to XIAP [6]: 300 fold

Binder: B3
Kd [7]: 30 nM
Ki [8]: < 1 nM
